± gives the uncertainty stated by the source.
B1: Endonuclease CUE2, residues 9 to 47; numbered along this chain, P36075 (parent)
chain: HESKLSILMDMFPAISKSKLQVHLLENNNDLDLTIGLLL

Variants of: B1
Test: abundance fitness (aPCA) (normalised: wild type 0, dead -1); higher = more abundant; growth selection in yeast, the domain comes from the species named
Conditions: Saccharomyces cerevisiae (strain ATCC 204508 / S288c)

Q: For HESKLSILMDMFPAISKSKLQCHLLENNNDLDLTIGLLL, which abundance fitness is on record?
A: 0.119 ± 0.082

Q: For HESKLSILMDMFPAISKSKLQEHLLENNNDLDLTIGLLL, which abundance fitness is on record?
A: -0.05 ± 0.04

Q: Which abundance fitness does the source give for HESKLSILMDMFPAISKSKLQAHLLENNNDLDLTIGLLL here?
A: -0.001 ± 0.04

Q: Which abundance fitness does the source give for HESKLSILMDMFPAISKSKLQDHLLENNNDLDLTIGLLL here?
A: -0.069 ± 0.11

Q: With HESKLSILMDMFPAISKSKLQRHLLENNNDLDLTIGLLL as the variant, how does the abundance fitness read?
A: 0.026 ± 0.032

Q: With HESKLSILMDMFPAISKSKLQIHLLENNNDLDLTIGLLL as the variant, how does the abundance fitness read?
A: 0.039 ± 0.28

Q: Which abundance fitness does the source give for HESKLSILMDMFPAISKSKLQPHLLENNNDLDLTIGLLL here?
A: -0.464 ± 0.07

Q: For HESKLSILMDMFPAISKSKLQGHLLENNNDLDLTIGLLL, which abundance fitness is on record?
A: -0.071 ± 0.036

Q: With HESKLSILMDMFPAISKSKLQMHLLENNNDLDLTIGLLL as the variant, how does the abundance fitness read?
A: 0.019 ± 0.056

Q: Which abundance fitness does the source give for HESKLSILMDMFPAISKSKLQLHLLENNNDLDLTIGLLL here?
A: -0.08 ± 0.041

Q: With HESKLSILMDMFPAISKSKLQTHLLENNNDLDLTIGLLL as the variant, how does the abundance fitness read?
A: -0.006 ± 0.044

Q: For HESKLSILMDMFPAISKSKLQKHLLENNNDLDLTIGLLL, which abundance fitness is on record?
A: 0.03 ± 0.045

Q: Which abundance fitness does the source give for HESKLSILMDMFPAISKSKLQSHLLENNNDLDLTIGLLL here?
A: -0.055 ± 0.051

Q: For HESKLSILMDMFPAISKSKLQWHLLENNNDLDLTIGLLL, which abundance fitness is on record?
A: -0.147 ± 0.039

Q: With HESKLSILMDMFPAISKSKLHVHLLENNNDLDLTIGLLL as the variant, how does the abundance fitness read?
A: -0.124 ± 0.12

Q: Which abundance fitness does the source give for HESKLSILMDMFPAISKSKLNVHLLENNNDLDLTIGLLL here?
A: 0.807 ± 0.49

Q: With HESKLSILMDMFPAISKSKLVVHLLENNNDLDLTIGLLL as the variant, how does the abundance fitness read?
A: -0.118 ± 0.039

Q: Which abundance fitness does the source give for HESKLSILMDMFPAISKSKLMVHLLENNNDLDLTIGLLL here?
A: -0.089 ± 0.066

Q: Which abundance fitness does the source give for HESKLSILMDMFPAISKSKLLVHLLENNNDLDLTIGLLL here?
A: -0.24 ± 0.062

Q: With HESKLSILMDMFPAISKSKLIVHLLENNNDLDLTIGLLL as the variant, how does the abundance fitness read?
A: 0.155 ± 0.1

Q: Which abundance fitness does the source give for HESKLSILMDMFPAISKSKLRVHLLENNNDLDLTIGLLL here?
A: -0.085 ± 0.034

Q: For HESKLSILMDMFPAISKSKLGVHLLENNNDLDLTIGLLL, which abundance fitness is on record?
A: -0.139 ± 0.041

Q: With HESKLSILMDMFPAISKSKLFVHLLENNNDLDLTIGLLL as the variant, how does the abundance fitness read?
A: 0.012 ± 0.16

Q: Which abundance fitness does the source give for HESKLSILMDMFPAISKSKLTVHLLENNNDLDLTIGLLL here?
A: -0.128 ± 0.07

Q: For HESKLSILMDMFPAISKSKLEVHLLENNNDLDLTIGLLL, which abundance fitness is on record?
A: -0.021 ± 0.054

Q: With HESKLSILMDMFPAISKSKLWVHLLENNNDLDLTIGLLL as the variant, how does the abundance fitness read?
A: -0.423 ± 0.046

Q: Which abundance fitness does the source give for HESKLSILMDMFPAISKSKLCVHLLENNNDLDLTIGLLL here?
A: -0.061 ± 0.048

Q: With HESKLSILMDMFPAISKSKLPVHLLENNNDLDLTIGLLL as the variant, how does the abundance fitness read?
A: -1.19 ± 0.42

Q: Which abundance fitness does the source give for HESKLSILMDMFPAISKSKLDVHLLENNNDLDLTIGLLL here?
A: -0.119 ± 0.064

Q: For HESKLSILMDMFPAISKSKLSVHLLENNNDLDLTIGLLL, which abundance fitness is on record?
A: 0.033 ± 0.049

Q: For HESKLSILMDMFPAISKSKLKVHLLENNNDLDLTIGLLL, which abundance fitness is on record?
A: -0.094 ± 0.047

Q: Which abundance fitness does the source give for HESKLSILMDMFPAISKSKLQVHLLELNNDLDLTIGLLL here?
A: -0.325 ± 0.051

Q: Which abundance fitness does the source give for HESKLSILMDMFPAISKSKLQVHLLEINNDLDLTIGLLL here?
A: -0.461 ± 0.41

Q: With HESKLSILMDMFPAISKSKLQVHLLECNNDLDLTIGLLL as the variant, how does the abundance fitness read?
A: -0.024 ± 0.07

Q: With HESKLSILMDMFPAISKSKLQVHLLEFNNDLDLTIGLLL as the variant, how does the abundance fitness read?
A: -0.482 ± 0.25

Q: Which abundance fitness does the source give for HESKLSILMDMFPAISKSKLQVHLLEWNNDLDLTIGLLL here?
A: -0.364 ± 0.074

Q: With HESKLSILMDMFPAISKSKLQVHLLEQNNDLDLTIGLLL as the variant, how does the abundance fitness read?
A: -0.132 ± 0.072

Q: For HESKLSILMDMFPAISKSKLQVHLLEMNNDLDLTIGLLL, which abundance fitness is on record?
A: -0.191 ± 0.077

Q: With HESKLSILMDMFPAISKSKLQVHLLETNNDLDLTIGLLL as the variant, how does the abundance fitness read?
A: -0.273 ± 0.062

Q: Which abundance fitness does the source give for HESKLSILMDMFPAISKSKLQVHLLESNNDLDLTIGLLL here?
A: -0.164 ± 0.044

Q: For HESKLSILMDMFPAISKSKLQVHLLEKNNDLDLTIGLLL, which abundance fitness is on record?
A: -0.267 ± 0.14

Q: For HESKLSILMDMFPAISKSKLQVHLLEVNNDLDLTIGLLL, which abundance fitness is on record?
A: -0.415 ± 0.062

Q: Which abundance fitness does the source give for HESKLSILMDMFPAISKSKLQVHLLERNNDLDLTIGLLL here?
A: -0.244 ± 0.04

Q: Which abundance fitness does the source give for HESKLSILMDMFPAISKSKLQVHLLEGNNDLDLTIGLLL here?
A: -0.243 ± 0.042

Q: With HESKLSILMDMFPAISKSKLQVHLLEENNDLDLTIGLLL as the variant, how does the abundance fitness read?
A: -0.134 ± 0.094

Q: With HESKLSILMDMFPAISKSKLQVHLLEPNNDLDLTIGLLL as the variant, how does the abundance fitness read?
A: -0.997 ± 0.12

Q: For HESKLSILMDMFPAISKSKLQVHLLLNNNDLDLTIGLLL, which abundance fitness is on record?
A: -0.288 ± 0.049

Q: With HESKLSILMDMFPAISKSKLQVHLLWNNNDLDLTIGLLL as the variant, how does the abundance fitness read?
A: -0.639 ± 0.071

Q: With HESKLSILMDMFPAISKSKLQVHLLDNNNDLDLTIGLLL as the variant, how does the abundance fitness read?
A: -0.139 ± 0.13

Q: For HESKLSILMDMFPAISKSKLQVHLLVNNNDLDLTIGLLL, which abundance fitness is on record?
A: -0.257 ± 0.046

Q: For HESKLSILMDMFPAISKSKLQVHLLQNNNDLDLTIGLLL, which abundance fitness is on record?
A: -0.151 ± 0.086

Q: Which abundance fitness does the source give for HESKLSILMDMFPAISKSKLQVHLLMNNNDLDLTIGLLL here?
A: -0.176 ± 0.068

Q: For HESKLSILMDMFPAISKSKLQVHLLFNNNDLDLTIGLLL, which abundance fitness is on record?
A: -0.59 ± 0.25

Q: Which abundance fitness does the source give for HESKLSILMDMFPAISKSKLQVHLLKNNNDLDLTIGLLL here?
A: -0.086 ± 0.14

Q: With HESKLSILMDMFPAISKSKLQVHLLNNNNDLDLTIGLLL as the variant, how does the abundance fitness read?
A: 0.381 ± 0.095

Q: Which abundance fitness does the source give for HESKLSILMDMFPAISKSKLQVHLLANNNDLDLTIGLLL here?
A: 0.047 ± 0.036

Q: For HESKLSILMDMFPAISKSKLQVHLLRNNNDLDLTIGLLL, which abundance fitness is on record?
A: -0.045 ± 0.032

Q: With HESKLSILMDMFPAISKSKLQVHLLTNNNDLDLTIGLLL as the variant, how does the abundance fitness read?
A: -0.113 ± 0.047

Q: For HESKLSILMDMFPAISKSKLQVHLLSNNNDLDLTIGLLL, which abundance fitness is on record?
A: -0.131 ± 0.044

Q: For HESKLSILMDMFPAISKSKLQVHLLGNNNDLDLTIGLLL, which abundance fitness is on record?
A: -0.123 ± 0.035

Q: Which abundance fitness does the source give for HESKLSILMDMFPAISKSKLQVHLLCNNNDLDLTIGLLL here?
A: -0.331 ± 0.1

Q: For HESKLSILMDMFPAISKSKLQVNLLENNNDLDLTIGLLL, which abundance fitness is on record?
A: -0.026 ± 0.089

Q: With HESKLSILMDMFPAISKSKLQVMLLENNNDLDLTIGLLL as the variant, how does the abundance fitness read?
A: -0.165 ± 0.052

Q: For HESKLSILMDMFPAISKSKLQVALLENNNDLDLTIGLLL, which abundance fitness is on record?
A: -0.075 ± 0.036

Reference: the Human Domainome abundance scans (Beltran et al. 2025)
